# Earlier results, collected in patent US20130145495A1, “ENHANCED CARBON FIXATION IN PHOTOSYNTHETIC HOSTS” (DONALD DANFORTH PLANT SCIENCE CENTER, priority 2010, published 2013).
# Tested on: carbonic anhydrase
row,Molecule,Kcat [s⁻¹]
1,"hCAI: human α-carbonic anhydrase isoenzyme I, cytosol",200000
2,"hCAXIII: human α-carbonic anhydrase isoenzyme XIII, cytosol",150000
3,"hCAVA: human α-carbonic anhydrase isoenzyme VA, mitochondria (protein, UniProt P35218 39-305, looked up) Carbonic anhydrase 5A, …: CAWQTSNNTLHPLWTVPVSVPGGTRQSPINIQWRDSVYDPQLKPLRVSYEAASCLYIWNTGYLFQVEFDDATEASGISGGPLENHYRLKQFHFHWGAVNEGGSEHTVDGHAYPAELHLVHWNSVKYQNYKEAVVGENGLAVIGVFLKLGAHHQTLQRLVDILPEIKHKDARAAMRPFDPSTLLPTCWDYWTYAGSLTTPPLTESVTWIIQKEPVEVAPSQLSAFRTLLFSALGEEEKMMVNNYRPLQPLMNRKVWASFQATNEGTRS",290000
4,"hCAVII: human α-carbonic anhydrase isoenzyme VII, cytosol (protein, UniProt P43166 1-264, looked up) Carbonic anhydrase 7: MTGHHGWGYGQDDGPSHWHKLYPIAQGDRQSPINIISSQAVYSPSLQPLELSYEACMSLSITNNGHSVQVDFNDSDDRTVVTGGPLEGPYRLKQFHFHWGKKHDVGSEHTVDGKSFPSELHLVHWNAKKYSTFGEAASAPDGLAVVGVFLETGDEHPSMNRLTDALYMVRFKGTKAQFSCFNPKCLLPASRHYWTYPGSLTTPPLSESVTWIVLREPICISERQMGKFRSLLFTSEDDERIHMVNNFRPPQPLKGRVVKASFRA",950000
5,"hCAXV: α-carbonic anhydrase isoenzyme XV, membrane (protein, UniProt Q99N23 19-324, looked up) Carbonic anhydrase 15: VDSSGTWCYDSQDPKCGPAHWKELAPACGGPTQSPINIDLRLVQRDYTLKPFIFQGYDSAPQDPWVLENDGHTVLLRVNSCQQNCPAIRGAGLPSPEYRLLQLHFHWGSPGHQGSEHSLDEKHGSMEMHMVHMNTKYQSMEDARSQPDGFAILAVLLVEEDRDNTNFSAIVSGLKNLSSPGVAVNLTSTFALASLLPSALRLLRYYRYSGSLTTPGCEPAVLWTVFENTVPIGHAQVVQFQAVLQTGPPGLHPRPLTSNFRPQQPLGGRRISASPEASVRSSVSTLPCLHLALVGLGVGLRLWQGP",470000
6,"hCAIII: human α-carbonic anhydrase isoenzyme III, cytosol (protein, UniProt P07451 2-260, looked up) Carbonic anhydrase 3: AKEWGYASHNGPDHWHELFPNAKGENQSPVELHTKDIRHDPSLQPWSVSYDGGSAKTILNNGKTCRVVFDDTYDRSMLRGGPLPGPYRLRQFHLHWGSSDDHGSEHTVDGVKYAAELHLVHWNPKYNTFKEALKQRDGIAVIGIFLKIGHENGEFQIFLDALDKIKTKGKEAPFTKFDPSCLFPACRDYWTYQGSFTTPPCEECIVWLLLKEPMTVSSDQMAKLRSLLSSAENEPPVPLVSNWRPPQPINNRVVRASFK",10000
7,"hCAXIV: human α-carbonic anhydrase isoenzyme XIV, transmembrane (protein, UniProt Q9ULX7 16-337, looked up) Carbonic anhydrase 14: ADGGQHWTYEGPHGQDHWPASYPECGNNAQSPIDIQTDSVTFDPDLPALQPHGYDQPGTEPLDLHNNGHTVQLSLPSTLYLGGLPRKYVAAQLHLHWGQKGSPGGSEHQINSEATFAELHIVHYDSDSYDSLSEAAERPQGLAVLGILIEVGETKNIAYEHILSHLHEVRHKDQKTSVPPFNLRELLPKQLGQYFRYNGSLTTPPCYQSVLWTVFYRRSQISMEQLEKLQGTLFSTEEEPSKLLVQNYRALQPLNQRMVFASFIQAGSSYTTGEMLSLGVGILVGCLCLLLAVYFIARKIRKKRLENRKSVVFTSAQATTEA",310000
8,"hCAVB: human α-carbonic anhydrase isoenzyme VB, mitochondria (protein, UniProt Q9Y2D0 34-317, looked up) Carbonic anhydrase 5B, …: CSLYTCTYKTRNRALHPLWESVDLVPGGDRQSPINIRWRDSVYDPGLKPLTISYDPATCLHVWNNGYSFLVEFEDSTDKSVIKGGPLEHNYRLKQFHFHWGAIDAWGSEHTVDSKCFPAELHLVHWNAVRFENFEDAALEENGLAVIGVFLKLGKHHKELQKLVDTLPSIKHKDALVEFGSFDPSCLMPTCPDYWTYSGSLTTPPLSESVTWIIKKQPVEVDHDQLEQFRTLLFTSEGEKEKRMVDNFRPLQPLMNRTVRSSFRHDYVLNVQAKPKPATSQATP",950000
9,"hCAIV: human α-carbonic anhydrase isoenzyme IV, membrane (protein, UniProt P22748 19-284, looked up) Carbonic anhydrase 4: AESHWCYEVQAESSNYPCLVPVKWGGNCQKDRQSPINIVTTKAKVDKKLGRFFFSGYDKKQTWTVQNNGHSVMMLLENKASISGGGLPAPYQAKQLHLHWSDLPYKGSEHSLDGEHFAMEMHIVHEKEKGTSRNVKEAQDPEDEIAVLAFLVEAGTQVNEGFQPLVEALSNIPKPEMSTTMAESSLLDLLPKEEKLRHYFRYLGSLTTPTCDEKVVWTVFREPIQLHREQILAFSQKLYYDKEQTVSMKDNVRPLQQLGQRTVIKS",1e+06
10,"hCAVI: human α-carbonic anhydrase isoenzyme VI, secreted (protein, UniProt P23280 18-308, looked up) Carbonic anhydrase 6: QHVSDWTYSEGALDEAHWPQHYPACGGQRQSPINLQRTKVRYNPSLKGLNMTGYETQAGEFPMVNNGHTVQISLPSTMRMTVADGTVYIAQQMHFHWGGASSEISGSEHTVDGIRHVIEIHIVHYNSKYKSYDIAQDAPDGLAVLAAFVEVKNYPENTYYSNFISHLANIKYPGQRTTLTGLDVQDMLPRNLQHYYTYHGSLTTPPCTENVHWFVLADFVKLSRTQVWKLENSLLDHRNKTIHNDYRRTQPLNHRVVESNFPNQEYTLGSEFQFYLHKIEEILDYLRRALN",340000
11,"hCAXII: human α-carbonic anhydrase isoenzyme XII, transmembrane (protein, UniProt O43570 25-354, looked up) Carbonic anhydrase 12: APVNGSKWTYFGPDGENSWSKKYPSCGGLLQSPIDLHSDILQYDASLTPLEFQGYNLSANKQFLLTNNGHSVKLNLPSDMHIQGLQSRYSATQLHLHWGNPNDPHGSEHTVSGQHFAAELHIVHYNSDLYPDASTASNKSEGLAVLAVLIEMGSFNPSYDKIFSHLQHVKYKGQEAFVPGFNIEELLPERTAEYYRYRGSLTTPPCNPTVLWTVFRNPVQISQEQLLALETALYCTHMDDPSPREMINNFRQVQKFDERLVYTSFSQVQVCTAAGLSLGIILSLALAGILGICIVVVVSIWLFRRKSIKKGDNKGVIYKPATKMETEAHA",420000
